Source: patent US20160264649A1

Key:
Experiment in all cases: cell-based or functional assay
[1] = molecular target: HIV-1 92RW008 Env (HIV-1)
[2] = molecular target: HIV-1 92TH021 Env (HIV-1)
[3] = molecular target: HIV-1 92UG031 Env (HIV-1)
[4] = molecular target: HIV-1 92UG037 Env (HIV-1)
[5] = molecular target: HIV-1 92WR009 Env (HIV-1)
[6] = molecular target: HIV-1 92WR020 Env (HIV-1)
[7] = molecular target: HIV-1 92WR021 Env (HIV-1)
[8] = molecular target: HIV-1 92WR024 Env (HIV-1)
[9] = molecular target: HIV-1 92WR026 Env (HIV-1)
[10] = molecular target: HIV-1 93UG077 Env (HIV-1)
[11] = molecular target: HIV-1 93WR029 Env (HIV-1)
[12] = molecular target: HIV-1 94KE105 Env (HIV-1)
[13] = molecular target: HIV-1 94UG103 Env (HIV-1)
HIV-1 CMU02 Env (HIV-1) = molecular target: HIV-1 CMU02 Env (HIV-1)
[14] = molecular target: HIV-1 Env of isolate MG RM-C-019 (subtype C) (HIV-1)
[15] = molecular target: HIV-1 Env of isolate MG RM-C-020 (subtype C) (HIV-1)
[16] = molecular target: HIV-1 Env of isolate MG RM-C-022 (subtype C) (HIV-1)
[17] = molecular target: HIV-1 Env of isolate MG RM-C-023 (subtype C) (HIV-1)
[18] = molecular target: HIV-1 Env of isolate MG RM-C-024 (subtype C) (HIV-1)
[19] = molecular target: HIV-1 Env of isolate MG RM-C-025 (subtype C) (HIV-1)
[20] = molecular target: HIV-1 Env of isolate MG RM-C-026 (subtype C) (HIV-1)
[21] = molecular target: HIV-1 Env of isolate MG RM-C-027 (subtype C) (HIV-1)
[22] = molecular target: HIV-1 Env of isolate MG RM-C-028 (subtype C) (HIV-1)
[23] = molecular target: HIV-1 MGRM-A-001 Env (HIV-1)
[24] = molecular target: HIV-1 MGRM-A-002 Env (HIV-1)
[25] = molecular target: HIV-1 MGRM-A-003 Env (HIV-1)
[26] = molecular target: HIV-1 MGRM-A-004 Env (HIV-1)
[27] = molecular target: HIV-1 MGRM-A-005 Env (HIV-1)
[28] = molecular target: HIV-1 MGRM-A-006 Env (HIV-1)
[29] = molecular target: HIV-1 MGRM-A-007 Env (HIV-1)
[30] = molecular target: HIV-1 MGRM-A-008 Env (HIV-1)
[31] = molecular target: HIV-1 MGRM-A-009 Env (HIV-1)
[32] = molecular target: HIV-1 MGRM-A-010 Env (HIV-1)
[33] = molecular target: HIV-1 MGRM-A-011 Env (HIV-1)
[34] = molecular target: HIV-1 MGRM-A-012 Env (HIV-1)
[35] = molecular target: HIV-1 MGRM-A-013 Env (HIV-1)
[36] = molecular target: HIV-1 MGRM-A-014 Env (HIV-1)
[37] = molecular target: HIV-1 MGRM-AE-001 Env (HIV-1)
[38] = molecular target: HIV-1 MGRM-AE-002 Env (HIV-1)
[39] = molecular target: HIV-1 MGRM-AE-003 Env (HIV-1)
[40] = molecular target: HIV-1 MGRM-AE-004 Env (HIV-1)
[41] = molecular target: HIV-1 MGRM-AE-005 Env (HIV-1)
[42] = molecular target: HIV-1 MGRM-AE-006 Env (HIV-1)
[43] = molecular target: HIV-1 MGRM-AE-007 Env (HIV-1)
[44] = molecular target: HIV-1 MGRM-AE-008 Env (HIV-1)
[45] = molecular target: HIV-1 MGRM-AG-001 Env (HIV-1)
[46] = molecular target: HIV-1 MGRM-AG-002 Env (HIV-1)
[47] = molecular target: HIV-1 MGRM-AG-003 Env (HIV-1)
[48] = molecular target: HIV-1 MGRM-AG-005 Env (HIV-1)
[49] = molecular target: HIV-1 MGRM-AG-006 Env (HIV-1)
[50] = molecular target: HIV-1 MGRM-AG-008 Env (HIV-1)
[51] = molecular target: HIV-1 MGRM-AG-009 Env (HIV-1)
[52] = molecular target: HIV-1 MGRM-AG-011 Env (HIV-1)
[53] = molecular target: HIV-1 MGRM-AG-012 Env (HIV-1)
[54] = molecular target: HIV-1 MGRM-AG-013 Env (HIV-1)
HIV-1 VLGCA1 Env (HIV-1) = molecular target: HIV-1 VLGCA1 Env (HIV-1)

## 5114_A19 (PGT-128) (antibody)
[1]
  IC50: 0.003 µg/mL
[2]
  IC50: 0.01 µg/mL
[3]
  IC50: > 50 µg/mL
[4]
  IC50: 0.006 µg/mL
[5]
  IC50: 0.812 µg/mL
[6]
  IC50: 0.005 µg/mL
[7]
  IC50: 0.005 µg/mL
[8]
  IC50: > 50 µg/mL
[9]
  IC50: 0.01 µg/mL
[10]
  IC50: 0.014 µg/mL
[11]
  IC50: > 50 µg/mL
[12]
  IC50: 0.007 µg/mL
[13]
  IC50: 0.011 µg/mL
HIV-1 CMU02 Env (HIV-1)
  IC50: > 50 µg/mL
[14]
  IC50: 0.01 µg/mL
[15]
  IC50: 5.85 µg/mL
[16]
  IC50: 0.042 µg/mL
[17]
  IC50: 0.026 µg/mL
[18]
  IC50: > 50 µg/mL
[19]
  IC50: 10.5 µg/mL
[20]
  IC50: 0.007 µg/mL
[21]
  IC50: 0.081 µg/mL
[22]
  IC50: 14.4 µg/mL
[23]
  IC50: > 50 µg/mL
[24]
  IC50: 0.149 µg/mL
[25]
  IC50: > 50 µg/mL
[26]
  IC50: > 50 µg/mL
[27]
  IC50: > 50 µg/mL
[28]
  IC50: > 50 µg/mL
[29]
  IC50: > 50 µg/mL
[30]
  IC50: > 50 µg/mL
[31]
  IC50: 0.005 µg/mL
[32]
  IC50: 0.005 µg/mL
[33]
  IC50: > 50 µg/mL
[34]
  IC50: 0.025 µg/mL
[35]
  IC50: 0.008 µg/mL
[36]
  IC50: 0.007 µg/mL
[37]
  IC50: 0.069 µg/mL
[38]
  IC50: 0.522 µg/mL
[39]
  IC50: 0.18 µg/mL
[40]
  IC50: > 50 µg/mL
[41]
  IC50: 0.032 µg/mL
[42]
  IC50: 0.044 µg/mL
[43]
  IC50: > 50 µg/mL
[44]
  IC50: > 50 µg/mL
[45]
  IC50: 4.73 µg/mL
[46]
  IC50: 4.99 µg/mL
[47]
  IC50: 34.8 µg/mL
[48]
  IC50: 0.037 µg/mL
[49]
  IC50: 0.009 µg/mL
[50]
  IC50: 0.668 µg/mL
[51]
  IC50: 0.021 µg/mL
[52]
  IC50: 3.93 µg/mL
[53]
  IC50: > 50 µg/mL
[54]
  IC50: 0.004 µg/mL
HIV-1 VLGCA1 Env (HIV-1)
  IC50: 0.838 µg/mL

## 5141_B17 (PGT-126) (antibody)
[1]
  IC50: 0.008 µg/mL
[2]
  IC50: 0.197 µg/mL
[3]
  IC50: > 50 µg/mL
[4]
  IC50: 0.011 µg/mL
[5]
  IC50: > 50 µg/mL
[6]
  IC50: 0.006 µg/mL
[7]
  IC50: 0.006 µg/mL
[8]
  IC50: 42 µg/mL
[9]
  IC50: 0.008 µg/mL
[10]
  IC50: 0.02 µg/mL
[11]
  IC50: > 50 µg/mL
[12]
  IC50: 0.006 µg/mL
[13]
  IC50: 0.008 µg/mL
HIV-1 CMU02 Env (HIV-1)
  IC50: > 50 µg/mL
[23]
  IC50: > 50 µg/mL
[24]
  IC50: 0.015 µg/mL
[25]
  IC50: > 50 µg/mL
[26]
  IC50: > 50 µg/mL
[27]
  IC50: > 50 µg/mL
[28]
  IC50: > 50 µg/mL
[29]
  IC50: > 50 µg/mL
[30]
  IC50: > 50 µg/mL
[31]
  IC50: 0.004 µg/mL
[32]
  IC50: 0.002 µg/mL
[33]
  IC50: > 50 µg/mL
[34]
  IC50: 0.097 µg/mL
[35]
  IC50: 0.006 µg/mL
[36]
  IC50: 0.01 µg/mL
[37]
  IC50: 9.68 µg/mL
[38]
  IC50: > 50 µg/mL
[39]
  IC50: > 50 µg/mL
[40]
  IC50: > 50 µg/mL
[41]
  IC50: 0.324 µg/mL
[42]
  IC50: 17.3 µg/mL
[43]
  IC50: > 50 µg/mL
[44]
  IC50: > 50 µg/mL
[45]
  IC50: > 50 µg/mL
[46]
  IC50: > 50 µg/mL
[47]
  IC50: > 50 µg/mL
[48]
  IC50: 1.21 µg/mL
[49]
  IC50: 0.01 µg/mL
[50]
  IC50: > 50 µg/mL
[51]
  IC50: 0.03 µg/mL
[52]
  IC50: 24.5 µg/mL
[53]
  IC50: > 50 µg/mL
[54]
  IC50: 0.008 µg/mL
HIV-1 VLGCA1 Env (HIV-1)
  IC50: > 50 µg/mL

## 5145_B14 (PGT-127) (antibody)
[1]
  IC50: 0.012 µg/mL
[2]
  IC50: > 50 µg/mL
[3]
  IC50: > 50 µg/mL
[4]
  IC50: 0.014 µg/mL
[5]
  IC50: > 50 µg/mL
[6]
  IC50: 0.01 µg/mL
[7]
  IC50: 0.011 µg/mL
[8]
  IC50: > 50 µg/mL
[9]
  IC50: 0.024 µg/mL
[10]
  IC50: 0.055 µg/mL
[11]
  IC50: > 50 µg/mL
[12]
  IC50: 0.023 µg/mL
[13]
  IC50: 0.017 µg/mL
HIV-1 CMU02 Env (HIV-1)
  IC50: > 50 µg/mL
[23]
  IC50: > 50 µg/mL
[24]
  IC50: 9.42 µg/mL
[25]
  IC50: > 50 µg/mL
[26]
  IC50: > 50 µg/mL
[27]
  IC50: > 50 µg/mL
[28]
  IC50: > 50 µg/mL
[29]
  IC50: > 50 µg/mL
[30]
  IC50: > 50 µg/mL
[31]
  IC50: 0.013 µg/mL
[32]
  IC50: 0.017 µg/mL
[33]
  IC50: > 50 µg/mL
[34]
  IC50: 0.105 µg/mL
[35]
  IC50: 0.029 µg/mL
[36]
  IC50: 0.24 µg/mL
[37]
  IC50: > 50 µg/mL
[38]
  IC50: > 50 µg/mL
[39]
  IC50: > 50 µg/mL
[40]
  IC50: > 50 µg/mL
[41]
  IC50: > 50 µg/mL
[42]
  IC50: > 50 µg/mL
[43]
  IC50: > 50 µg/mL
[44]
  IC50: > 50 µg/mL
[45]
  IC50: > 50 µg/mL
[46]
  IC50: > 50 µg/mL
[47]
  IC50: > 50 µg/mL
[48]
  IC50: > 50 µg/mL
[49]
  IC50: 0.021 µg/mL
[50]
  IC50: > 50 µg/mL
[51]
  IC50: 0.059 µg/mL
[52]
  IC50: > 50 µg/mL
[53]
  IC50: > 50 µg/mL
[54]
  IC50: 0.018 µg/mL
HIV-1 VLGCA1 Env (HIV-1)
  IC50: > 50 µg/mL
